Measurements taken from publication PMC8283798.

How the values were obtained:
[1] = target: FcγRIIIa-V158 (high-affinity FcγIIIa receptor allele) (human) (UniProt P08637); experiment: ELISA
[2] = target: FcγRIIIa-F158 (low-affinity FcγIIIa receptor allele) (human) (UniProt P08637); experiment: ELISA

Row | Substance | EC50 [1] | EC50 [2]
1 | G2 (11), nonfucosylated Herceptin glycoform carrying the biantennary complex-type N-glycan (antibody) | 1.21 nM | –
2 | G2 (11), nonfucosylated Herceptin glycoform carrying the biantennary complex-type N-glycan (antibody; other documents disagree on this pair) | – | 11.5 nM
3 | G2(Az)F (2), core 6-azido-fucosylated Herceptin carrying a complex-type N-glycan (antibody) | 2.86 nM | –
4 | G2(Az)F (2), core 6-azido-fucosylated Herceptin carrying a complex-type N-glycan (antibody; other documents disagree on this pair) | – | 12.8 nM
5 | G2(NH2)F (3), core 6-amino-fucosylated Herceptin (antibody) | 9.25 nM | –
6 | G2(NH2)F (3), core 6-amino-fucosylated Herceptin (antibody; other documents disagree on this pair) | – | 89.3 nM
7 | G2(OH- triazol)F (4), core 6-triazole-fucosylated Herceptin (antibody) | 18.2 nM | –
8 | G2(OH- triazol)F (4), core 6-triazole-fucosylated Herceptin (antibody; other documents disagree on this pair) | – | 81.4 nM
9 | G2Ara (6), core D-arabinosylated Herceptin (antibody) | 39.7 nM | –
10 | G2Ara (6), core D-arabinosylated Herceptin (antibody; other documents disagree on this pair) | – | 1430 nM
11 | G2F (1), core-fucosylated Herceptin glycoform carrying the biantennary complex-type N-glycan (antibody) | 42.6 nM | –
12 | G2F (1), core-fucosylated Herceptin glycoform carrying the biantennary complex-type N-glycan (antibody; other documents disagree on this pair) | – | 1570 nM
13 | G2Gal (5), core L-galactosylated Herceptin (antibody) | 7.19 nM | –
14 | G2Gal (5), core L-galactosylated Herceptin (antibody; other documents disagree on this pair) | – | 84.6 nM
